Source: patent US20220112276A1 (Janssen / Centocor, published 2022)
Numbering of substitutions follows the chain as printed. Each block holds one binder with its values, some of them ahead of it.

Columns and labels:
Assay in all cases: SPR, VHH captured by anti-Fc, ECD analyte
[1] = target: T1, mouse pIgR extracellular domain (ECD) (mouse, UniProt O70570 19-645)
T1 construct: Bought from R&D Systems (Cat 2800-PG-050); also called mpIgR ECD
T1 sequence: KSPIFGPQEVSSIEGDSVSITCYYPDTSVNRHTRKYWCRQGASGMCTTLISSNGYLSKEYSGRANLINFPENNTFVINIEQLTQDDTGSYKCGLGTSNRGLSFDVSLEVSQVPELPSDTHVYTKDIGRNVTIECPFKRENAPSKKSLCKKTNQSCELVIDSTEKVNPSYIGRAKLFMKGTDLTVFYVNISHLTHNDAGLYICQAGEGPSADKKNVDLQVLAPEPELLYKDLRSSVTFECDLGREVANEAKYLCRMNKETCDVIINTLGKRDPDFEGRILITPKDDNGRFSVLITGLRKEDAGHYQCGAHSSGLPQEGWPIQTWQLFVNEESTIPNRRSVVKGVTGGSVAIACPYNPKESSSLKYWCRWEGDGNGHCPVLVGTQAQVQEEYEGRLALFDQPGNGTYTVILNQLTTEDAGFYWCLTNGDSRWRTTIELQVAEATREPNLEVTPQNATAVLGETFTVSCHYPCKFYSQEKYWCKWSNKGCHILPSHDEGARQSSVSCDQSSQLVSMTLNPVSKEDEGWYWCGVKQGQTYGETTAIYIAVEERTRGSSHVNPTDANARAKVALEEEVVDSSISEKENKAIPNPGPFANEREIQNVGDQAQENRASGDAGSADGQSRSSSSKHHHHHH
Method in brief: (§1)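 Anti-human Fc surface captured VHH at 0.5 ug/ml (~200-300 RU); running buffer HBSP with 100 ug/ml BSA, 30 μL/min. Single-cycle kinetics with ECD injected low to high from 30 nM in 3-fold dilutions, dissociation 30 min. Double-referenced data globally fit to 1:1 Langmuir model for kon, koff, KD.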

[2] = target: T2, cynomolgus monkey pIgR extracellular domain (cynomolgus monkey, UniProt A0A2K5WMU9 19-638)
T2 construct: extracellular domain
Method in brief: as §1

[3] = target: T3, human pIgR extracellular domain (ECD) (human, UniProt P01833 19-638)
T3 construct: Bought from R&D Systems (Cat 2717-PG-050); also called hpIgR ECD
Method in brief: as §1

[4] = target: T4, rat pIgR extracellular domain (rat, UniProt P15083 19-643)
T4 construct: extracellular domain
T4 sequence (looked up): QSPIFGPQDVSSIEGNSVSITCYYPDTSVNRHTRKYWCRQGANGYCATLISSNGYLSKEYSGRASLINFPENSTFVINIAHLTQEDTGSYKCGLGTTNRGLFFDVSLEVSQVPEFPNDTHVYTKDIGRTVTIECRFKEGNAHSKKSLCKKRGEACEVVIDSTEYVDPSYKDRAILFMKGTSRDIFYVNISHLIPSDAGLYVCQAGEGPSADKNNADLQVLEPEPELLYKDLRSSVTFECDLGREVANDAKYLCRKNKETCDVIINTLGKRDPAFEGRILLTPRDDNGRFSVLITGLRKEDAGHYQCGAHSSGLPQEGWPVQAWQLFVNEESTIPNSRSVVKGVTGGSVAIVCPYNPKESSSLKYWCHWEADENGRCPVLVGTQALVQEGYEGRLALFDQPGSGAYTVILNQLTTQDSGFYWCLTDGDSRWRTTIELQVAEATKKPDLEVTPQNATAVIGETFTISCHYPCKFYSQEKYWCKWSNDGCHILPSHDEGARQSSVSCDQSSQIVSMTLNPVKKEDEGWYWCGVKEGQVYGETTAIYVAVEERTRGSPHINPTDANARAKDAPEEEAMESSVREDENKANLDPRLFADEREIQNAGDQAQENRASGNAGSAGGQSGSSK
Method in brief: as §1

T3 sequence (P01833 other isoform, or with tags, fused parts or gaps): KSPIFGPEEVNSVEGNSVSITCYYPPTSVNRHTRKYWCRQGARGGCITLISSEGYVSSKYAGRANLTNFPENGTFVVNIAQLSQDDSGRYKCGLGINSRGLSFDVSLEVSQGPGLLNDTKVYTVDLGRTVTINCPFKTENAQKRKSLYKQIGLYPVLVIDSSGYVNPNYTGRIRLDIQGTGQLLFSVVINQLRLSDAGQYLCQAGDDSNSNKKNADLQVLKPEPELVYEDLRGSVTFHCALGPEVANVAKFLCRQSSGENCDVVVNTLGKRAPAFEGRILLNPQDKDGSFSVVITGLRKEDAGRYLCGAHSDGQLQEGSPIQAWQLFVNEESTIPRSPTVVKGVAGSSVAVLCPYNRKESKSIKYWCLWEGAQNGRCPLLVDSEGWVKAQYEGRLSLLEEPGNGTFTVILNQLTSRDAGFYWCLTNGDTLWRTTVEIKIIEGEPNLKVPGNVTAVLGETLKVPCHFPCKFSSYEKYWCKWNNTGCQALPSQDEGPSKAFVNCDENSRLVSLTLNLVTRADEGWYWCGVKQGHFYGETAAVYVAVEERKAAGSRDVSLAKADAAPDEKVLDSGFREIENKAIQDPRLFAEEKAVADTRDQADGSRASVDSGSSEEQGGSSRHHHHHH
T2 sequence (A0A2K5WMU9 entry or part of it): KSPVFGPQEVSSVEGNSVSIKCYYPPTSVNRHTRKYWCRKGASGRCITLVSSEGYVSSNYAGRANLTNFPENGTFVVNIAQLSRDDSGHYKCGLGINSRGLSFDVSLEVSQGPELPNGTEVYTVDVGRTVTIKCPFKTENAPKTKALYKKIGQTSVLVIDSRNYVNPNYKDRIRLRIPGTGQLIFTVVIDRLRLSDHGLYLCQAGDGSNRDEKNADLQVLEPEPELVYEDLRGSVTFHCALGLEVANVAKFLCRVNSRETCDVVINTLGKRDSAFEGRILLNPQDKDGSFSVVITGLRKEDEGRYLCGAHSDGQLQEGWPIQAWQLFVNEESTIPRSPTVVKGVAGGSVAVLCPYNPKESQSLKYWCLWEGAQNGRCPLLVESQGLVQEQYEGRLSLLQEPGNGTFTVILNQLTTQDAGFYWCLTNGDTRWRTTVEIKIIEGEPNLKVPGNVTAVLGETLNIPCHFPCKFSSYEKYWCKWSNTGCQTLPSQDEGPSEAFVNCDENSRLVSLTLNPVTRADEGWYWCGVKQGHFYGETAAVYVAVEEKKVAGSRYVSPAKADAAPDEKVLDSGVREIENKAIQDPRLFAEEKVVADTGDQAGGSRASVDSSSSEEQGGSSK

B1: 02B12R3 VHH Mono-Fc (Fc fusion)
chain: QVQLVESGGGWVQTGGSLRLSCAASGRTVSSYYMGWFRQTPGKEREFVAAISWVGSSTYKYYTDSAKGRFTISRDNAKNTVYLQMNSLKPEDTAVYYCAARPRVGDPRSRYDDDNWGQGTQVTVSSSPAPELLGGPSVFLFPPKPKDTLMISRTPEVTCVVVDVSHEDPEVKFNWYVDGVEVHNAKTKPREEQYNSTYRVVSVLTVLHQDWLNGKEYKCKVSNKALPAPIEKTISKAKGQPREPQVYTKPPSREEMTKNQVSLSCLVKGFYPSDIAVEWESNGQPENNYKTTVPVLDSDGSFRLASYLTVDKSRWQQGNVFSCSVMHEALHNHYTQKSLSLSPGK
Kd [1]: 4.32 nM
Kd [2]: 31.5 nM
Kd [3]: 16.6 nM
Kd [4]: 3.44 nM

B2: 01D05R2LS VHH Mono-Fc (Fc fusion)
chain: EVQLVESGGGLVQTGGSLRLSCAASGRTFSPYAMGWFRQAPGKEREFVAAIRWSGATTYKYVGDSVQGRFTISRDAAGNTVYLQMNSVKPEDTAVYYCAADRVPKDISIDPRNPKDWDYWGKGTLVTVSSSPAPELLGGPSVFLFPPKPKDTLMISRTPEVTCVVVDVSHEDPEVKFNWYVDGVEVHNAKTKPREEQYNSTYRVVSVLTVLHQDWLNGKEYKCKVSNKALPAPIEKTISKAKGQPREPQVYTKPPSREEMTKNQVSLSCLVKGFYPSDIAVEWESNGQPENNYKTTVPVLDSDGSFRLASYLTVDKSRWQQGNVFSCSVMHEALHNHYTQKSLSLSPGK
Kd [1]: 13.9 nM
Kd [2]: 116 nM
Kd [3]: 7.9 nM
Kd [4]: 33.3 nM

B3: 01H01R2LS VHH Mono-Fc (Fc fusion)
chain: B2 chain with D64G, L125Q
Kd [1]: 12.8 nM
Kd [2]: 123 nM
Kd [3]: 6.91 nM
Kd [4]: 18.1 nM

B5: 01F04R2LS VHH Mono-Fc (Fc fusion)
chain: EVQLVESGGGLVQTGGSLRLSCAASGRTFSSYAMGWFRQAPGKEPERDFVAALRWSNDRTYYKYYADSVKGRFTISRDNAKNTVYLQMNTLKPEDTAVYYCAGGNYFSDPRVDKEYNYWGQGTQVTVSSSPAPELLGGPSVFLFPPKPKDTLMISRTPEVTCVVVDVSHEDPEVKFNWYVDGVEVHNAKTKPREEQYNSTYRVVSVLTVLHQDWLNGKEYKCKVSNKALPAPIEKTISKAKGQPREPQVYTKPPSREEMTKNQVSLSCLVKGFYPSDIAVEWESNGQPENNYKTTVPVLDSDGSFRLASYLTVDKSRWQQGNVFSCSVMHEALHNHYTQKSLSLSPGK
Kd [1]: 9.03 nM
Kd [2]: 28 nM
Kd [3]: 35.8 nM
Kd [4]: 8.9 nM

B8: 01H11R2LS VHH Mono-Fc (Fc fusion)
chain: EVQLVESGGGLVQAGDSLRLSCAASGRTLTTYGMGWFRQAPGKEREFVATIKWSGSTNYKYYADSVKGRFTISRDNAKNTVYLQMNSLKPEDTAVYYCAAGTVLGDPRVLNEYDYWGQGTLVTVSSSPAPELLGGPSVFLFPPKPKDTLMISRTPEVTCVVVDVSHEDPEVKFNWYVDGVEVHNAKTKPREEQYNSTYRVVSVLTVLHQDWLNGKEYKCKVSNKALPAPIEKTISKAKGQPREPQVYTKPPSREEMTKNQVSLSCLVKGFYPSDIAVEWESNGQPENNYKTTVPVLDSDGSFRLASYLTVDKSRWQQGNVFSCSVMHEALHNHYTQKSLSLSPGK
Kd [1]: 2.67 nM
Kd [2]: 2.31 nM
Kd [3]: 4.07 nM
Kd [4]: 1.46 nM

B9: 01H06R3L VHH Mono-Fc (Fc fusion)
chain: EVQLVESGGGLVQAGDSLRLSCAASGRTRTTYGMGWFRQAPGKEREFVTTITWSGPTNYKYYADSVKGRFTISRDNAKNTAYLQMNSLKPDDTAVYYCAASTVLTDPRVPTEYDYWGQGTQVTVSSSPAPELLGGPSVFLFPPKPKDTLMISRTPEVTCVVVDVSHEDPEVKFNWYVDGVEVHNAKTKPREEQYNSTYRVVSVLTVLHQDWLNGKEYKCKVSNKALPAPIEKTISKAKGQPREPQVYTKPPSREEMTKNQVSLSCLVKGFYPSDIAVEWESNGQPENNYKTTVPVLDSDGSFRLASYLTVDKSRWQQGNVFSCSVMHEALHNHYTQKSLSLSPGK
Kd [1]: 4.56 nM
Kd [2]: 1.66 nM
Kd [3]: 5.26 nM
Kd [4]: 0.897 nM

B11: 02E01R3LS VHH Mono-Fc (Fc fusion)
chain: B9 chain with E1Q, R29F, P56S, A81V, T105R
Kd [1]: 2.77 nM
Kd [2]: 5.05 nM
Kd [3]: 5.32 nM
Kd [4]: 1.64 nM

B13: 01A09R3L VHH Mono-Fc (Fc fusion)
chain: EVQLVESGGGVVQAEDSLRLSCAASGLSFSLSRMGWFRQAPGKEREFVATIEWSGRSTYKYYDDSVKGRFAVSGDNTKNTMNLQMKGLNLEDTGVYYCAANPNNYGDPRTPGAYQYWGQGTQVTVSSSPAPELLGGPSVFLFPPKPKDTLMISRTPEVTCVVVDVSHEDPEVKFNWYVDGVEVHNAKTKPREEQYNSTYRVVSVLTVLHQDWLNGKEYKCKVSNKALPAPIEKTISKAKGQPREPQVYTKPPSREEMTKNQVSLSCLVKGFYPSDIAVEWESNGQPENNYKTTVPVLDSDGSFRLASYLTVDKSRWQQGNVFSCSVMHEALHNHYTQKSLSLSPGK
Kd [1]: 0.301 nM
Kd [2]: 0.353 nM
Kd [3]: 0.681 nM
Kd [4]: 0.234 nM

The remaining binders from weak to strong by Kd [1], led by results:

Kd [1]: 107 nM
Kd [2]: 6.54 nM
Kd [3]: 4.48 nM
Kd [4]: 18.2 nM
B6: 01B12R2 VHH Mono-Fc (Fc fusion)
chain: EVQLVESGGGLVQAGGSLRLSCAASGRTFSSGIMGWFRQAPGKEREFVAAIEWSGGNTYKYYAESVKGRFAISRDNAKTTAYLQMGSLNPEDTALYYCAADESPSRYIDLRRPAPYHYWGQGTLVTVSSSPAPELLGGPSVFLFPPKPKDTLMISRTPEVTCVVVDVSHEDPEVKFNWYVDGVEVHNAKTKPREEQYNSTYRVVSVLTVLHQDWLNGKEYKCKVSNKALPAPIEKTISKAKGQPREPQVYTKPPSREEMTKNQVSLSCLVKGFYPSDIAVEWESNGQPENNYKTTVPVLDSDGSFRLASYLTVDKSRWQQGNVFSCSVMHEALHNHYTQKSLSLSPGK

Kd [1]: 14.8 nM
Kd [2]: 111 nM
Kd [3]: 8.46 nM
Kd [4]: 33.2 nM
B4: 01B06R2LS VHH Mono-Fc (Fc fusion)
chain: B2 chain with E1Q

Kd [1]: 5.67 nM
Kd [2]: 4.14 nM
Kd [3]: 9.44 nM
Kd [4]: 3.02 nM
B7: 01C08R2L VHH Mono-Fc (Fc fusion)
chain: B9 chain with R29F, M34V, P56S, A81V

Kd [1]: 5.6 nM
Kd [2]: 5.42 nM
Kd [3]: 8.38 nM
Kd [4]: 2.27 nM
B10: 01G08R3LS VHH Mono-Fc (Fc fusion)
chain: B8 chain with E1Q, L29F, A40G, K52T, A63T, G101S, G105T, V109R, L121Q

Kd [1]: 3.95 nM
Kd [2]: 44.3 nM
Kd [3]: 61 nM
Kd [4]: 6.19 nM
B12: 01H08R3 VHH Mono-Fc (Fc fusion)
chain: QVQLVESGGGSVQTGGSLRLSCTASGRTFSNYGMGWFRQAPGKEREFVAGITRSGRTTYYYYADAVKGRFTIPRDNADNTIYLQMDSMKPDDTAVYYCAARQGENNYDPRSGSAYNYWGPGTQVTVSSSPAPELLGGPSVFLFPPKPKDTLMISRTPEVTCVVVDVSHEDPEVKFNWYVDGVEVHNAKTKPREEQYNSTYRVVSVLTVLHQDWLNGKEYKCKVSNKALPAPIEKTISKAKGQPREPQVYTKPPSREEMTKNQVSLSCLVKGFYPSDIAVEWESNGQPENNYKTTVPVLDSDGSFRLASYLTVDKSRWQQGNVFSCSVMHEALHNHYTQKSLSLSPGK
